Laboratory results: doi:10.1101/027631

Target: recombinant tubulin lacking the β-tubulin CTT, polymerised into microtubules (S. cerevisiae | human) (UniProt P09733)
Assay: TIRF microscopy of single fluorescent molecules on surface-held microtubules

Substance: dynein-dynactin-BicD2 (DDB) complex (from UniProt Q921C5 25-400; A0A287B8J2 1-1281)
- reduction of the frequency of processive movement relative to WT MTs: 20%
